Laboratory results reported in US8632989B1, “Mutant insulin degrading enzyme and methods of use” (University of Kentucky Research Foundation, priority 2011, dated 2014).

T1: IDE (Rattus norvegicus, UniProt P35559)
T1 construct: hexahistidine (N); made in house; host or cells: Sf9 insect cells (baculovirus, pFastBac HTb)
T1 sequence (P35559 41-1019): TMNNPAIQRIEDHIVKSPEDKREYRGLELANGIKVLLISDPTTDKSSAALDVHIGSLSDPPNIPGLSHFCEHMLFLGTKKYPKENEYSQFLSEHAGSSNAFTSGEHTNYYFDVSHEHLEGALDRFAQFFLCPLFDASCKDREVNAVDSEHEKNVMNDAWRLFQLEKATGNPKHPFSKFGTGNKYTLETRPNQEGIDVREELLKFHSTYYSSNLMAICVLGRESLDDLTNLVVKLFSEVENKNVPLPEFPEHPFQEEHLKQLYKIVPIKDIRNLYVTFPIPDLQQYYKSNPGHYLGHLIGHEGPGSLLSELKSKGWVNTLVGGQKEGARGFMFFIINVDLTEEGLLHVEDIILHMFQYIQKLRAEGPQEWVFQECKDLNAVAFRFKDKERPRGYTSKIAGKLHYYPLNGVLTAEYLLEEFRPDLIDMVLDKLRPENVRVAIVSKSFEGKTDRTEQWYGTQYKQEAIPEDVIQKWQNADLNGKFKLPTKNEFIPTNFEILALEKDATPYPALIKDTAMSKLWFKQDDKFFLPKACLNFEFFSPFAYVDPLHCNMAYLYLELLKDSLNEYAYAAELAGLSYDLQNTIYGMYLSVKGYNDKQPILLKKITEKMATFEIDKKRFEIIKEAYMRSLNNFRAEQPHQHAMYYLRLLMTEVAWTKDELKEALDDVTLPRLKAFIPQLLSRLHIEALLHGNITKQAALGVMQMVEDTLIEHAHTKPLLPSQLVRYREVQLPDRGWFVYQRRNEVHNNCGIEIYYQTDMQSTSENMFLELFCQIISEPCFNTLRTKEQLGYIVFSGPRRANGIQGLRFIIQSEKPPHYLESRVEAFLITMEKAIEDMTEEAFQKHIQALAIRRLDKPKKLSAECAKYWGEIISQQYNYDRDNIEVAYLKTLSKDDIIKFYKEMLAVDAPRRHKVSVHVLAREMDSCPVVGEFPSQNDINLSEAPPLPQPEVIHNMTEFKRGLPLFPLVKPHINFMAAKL

B1: IDE^K898A,K899A,S901A: Rat IDE residues 41-1019 bearing the mutations K898A, K899A, S901A; ATP binding site mutant (protein, listed as Rattus norvegicus)
chain: MRNGLVWLLHPALPSTLHSILGARPPPVKRLCGFPKQIYSTMNNPAIQRIEDHIVKSPEDKREYRGLELANGIKVLLISDPTTDKSSAALDVHIGSLSDPPNIPGLSHFCEHMLFLGTKKYPKENEYSQFLSEHAGSSNAFTSGEHTNYYFDVSHEHLEGALDRFAQFFLCPLFDASCKDREVNAVDSEHEKNVMNDAWRLFQLEKATGNPKHPFSKFGTGNKYTLETRPNQEGIDVREELLKFHSTYYSSNLMAICVLGRESLDDLTNLVVKLFSEVENKNVPLPEFPEHPFQEEHLKQLYKIVPIKDIRNLYVTFPIPDLQQYYKSNPGHYLGHLIGHEGPGSLLSELKSKGWVNTLVGGQKEGARGFMFFIINVDLTEEGLLHVEDIILHMFQYIQKLRAEGPQEWVFQECKDLNAVAFRFKDKERPRGYTSKIAGKLHYYPLNGVLTAEYLLEEFRPDLIDMVLDKLRPENVRVAIVSKSFEGKTDRTEQWYGTQYKQEAIPEDVIQKWQNADLNGKFKLPTKNEFIPTNFEILALEKDATPYPALIKDTAMSKLWFKQDDKFFLPKACLNFEFFSPFAYVDPLHCNMAYLYLELLKDSLNEYAYAAELAGLSYDLQNTIYGMYLSVKGYNDKQPILLKKITEKMATFEIDKKRFEIIKEAYMRSLNNFRAEQPHQHAMYYLRLLMTEVAWTKDELKEALDDVTLPRLKAFIPQLLSRLHIEALLHGNITKQAALGVMQMVEDTLIEHAHTKPLLPSQLVRYREVQLPDRGWFVYQRRNEVHNNCGIEIYYQTDMQSTSENMFLELFCQIISEPCFNTLRTKEQLGYIVFSGPRRANGIQGLRFIIQSEKPPHYLESRVEAFLITMEKAIEDMTEEAFQKHIQALAIRRLDKPAALAAECAKYWGEIISQQYNYDRDNIEVAYLKTLSKDDIIKFYKEMLAVDAPRRHKVSVHVLAREMDSCPVVGEFPSQNDINLSEAPPLPQPEVIHNMTEFKRGLPLFPLVKPHINFMAAKL
modifications: wild-type Insulin Degrading Enzyme (IDE) from rat

What was measured:
[1] = target: T1, IDE; experiment: γ-methylene-ATP versus ATP activation of IDE-dependent hydrolysis of Abz-[…]-EDDnp; format: biochemical; conditions: 10 μM substrate, compared with ATP
Experimental: Activity was determined in 50 mM Tris-HCl, pH 7.4 with 10 μM Abz-[…]-EDDnp (SEQ ID NO:3) as substrate and indicated concentrations of ATP or γ-methylene-ATP. Reactions contained 0.1 μg of protein.
(§1) IDE activity was determined by measuring the increase in fluorescence that occurs when the enzyme cleaves the internally quenched fluorogenic substrate Abz-[…]-EDDnp (SEQ ID NO:3) at the R—K bond (Song et al., Journal of Biologial Chemistry 276, 1152-1155 (2001)). The reaction was followed on a SpectraMax Gemini XS fluorescence plate reader using an excitation and emission wavelengths of 318 nm and 419 nm, respectively. Initial velocities were determined using SoftMax Pro 4.0 and kinetic constants calculated using GraphPad Prism 4.0. ATPase activity was measured by following Pi release with acid-molybdate as described by Harder et al. (Harder et al., Biochemical Journal 298 (Pt 2), 395-401 (1994)).

[2] = system: Abz-GGFLRKHGQ-EDDnp; experiment: Effect of bradykinin on Abz-[…]-EDDnp hydrolysis, IDE and ATP binding site mutants; format: biochemical; conditions: 10 μM substrate, bradykinin as activator
Experimental: Activity was determined in 50 mM Tris-HCl, pH 7.4 with 10 μM Abz-[…]-EDDnp (SEQ ID NO:3) as substrate and indicated concentrations of bradykinin. Reactions contained 0.5 μg of protein.
as §1

[3] = system: Abz-GGFLRKHGQ-EDDnp; experiment: Activation by ATP of Abz-[…]-EDDnp hydrolysis, IDE and ATP binding site mutants; format: biochemical; conditions: 10 μM Abz-GGFLRKHGQ-EDDnp as substrate
Experimental: Activity was determined in 50 mM Tris-HCl, pH 7.4 with 10 μM Abz-[…]-EDDnp (SEQ ID NO:3) as substrate at the indicated concentrations of ATP (panel A), PPPi (panel B) or, TNP-ATP (panel C). Each reaction contained 0.5 μg of enzyme.
as §1

[4] = system: Abz-GGFLRKHGQ-EDDnp; experiment: Enzyme activity assay, kinetics of IDE and ATP binding site mutants with fluorogenic substrate; format: biochemical; conditions: rat IDE, Abz-GGFLRKHGQ-EDDnp as substrate
Experimental: Reactions were conducted in 50 mM Tris-HCl, pH 7.4.
as §1

[5] = TNP-ATP fluorescence measurements, IDE and ATP binding site mutants; conditions: 1.5 μM enzyme, 10 μM TNP-ATP, λexc=403 nm
Experimental: Fluorescence emission spectra were recorded on a Perkin-Elmer LS 55 Luminescence spectrometer with 1.5 μM of IDE, IDE^R429S or IDE^K898A,K899A,S901A in 50 mM Tris-HCl, pH 7.4 with 10 μM TNP-ATP. Fluorescence spectra were recorded with a λexc=403 nm.
TNP-ATP [2′,3′-O-(2,4,6-Trinitrophenyl)adenosine-5′-triphosphate] fluorescence was monitored at excitation and emission wavelengths of 403 nm and 547 nm, respectively, using a Perkin-Elmer LS55 Luminescence Spectrometer at 20±0.1° C. TNP-ATP (Molecular Probes, Inc.) as supplied was diluted to 4 mM with 50 mM Tris-HCl, pH 7.4, and added to achieve the indicated concentrations.

[6] = system: Saccharomyces cerevisiae; experiment: IDE activity assay in yeast, serial dilution mating test; format: cell-based; conditions: yeast assays
Experimental: Panel A depicts immunoblot of yeast-expressed IDE and IDE^K898A,K899A,S901A. Equivalent percentage amounts of total cellular extracts from yeast containing an empty expression vector or plasmids encoding IDE or the IDE^K898A,K899A,S901A mutant were analyzed by SDS-PAGE and immunoblotting using an IDE-specific antibody. […] An excess of MATa yeast were mixed with decreasing numbers of MATa cells deficient for Axl1p and Step 23p that were transformed with either an empty expression vector or a vector encoding IDE or IDE^K898A,K899A,S901A as indicated. Mating, which leads to colony growth, is dependent on production of mature a-factor pheromone by plasmid-encoded IDE. […] Concentrated samples of a-factor recovered from yeast bearing the indicated expression vector were spotted at the indicated dilutions on a lawn of RC757 MATa cells, which undergo growth arrest upon exposure to a-factor pheromone. […]
The assays take advantage of the ability of IDE, in lieu of the yeast M16 metallopeptidases Axl1p and Step 23p, to participate in the proteolytic maturation of yeast a-factor mating pheromone. […] Growth of diploid colonies, indicative of mating, was scored 3 days after incubation of plates at 30° C. […] Results of mating tests and halo assays were recorded by scanning plates with a Microtek flatbed scanner and importing digitized images into Photoshop and PowerPoint.

Molecule | ability to activate Abz-GGFLRKHGQ-EDDnp hydrolysis by IDE [1] | rate of Abz-GGFLRKHGQ-EDDnp hydrolysis with bradykinin, relative to wild type IDE [2] | level of activation by ATP, of the wild type value [3] | Hill coefficient [4] | Km [4] | kcat [4] | Vmax ([4]; 50 mM Tris-HCl, pH 7.4) | fluorescence associated with TNP-ATP binding, relative to wild type IDE [5] | intracellular function relative to unmodified IDE [6]
Nc1ncnc2c1ncn2[C@@H]1O[C@H](COP(=O)(O)OP(=O)(O)CP(=O)(O)O)[C@@H](O)[C@H]1O [γ-methylene ATP] | nearly as well as ATP |  |  |  |  |  |  |  | 
B1 |  | significantly reduced | even less activation | 1.7 ± 0.1 | 17.3 ± 1 mM | 0.258 ± 0.01 s⁻¹ | 140.8 ± 5.5 nmol/min/mg | lower fluorescent yield | reduced intracellular function
